Test results: patent publication US20240190946A1 (AUGMENTA BIOWORKS, published 2024)

What was measured:
[1] = target: SARS-COV-2 spike (1+2) protein on pseudotyped lentivirus (SARS-COV-2, UniProt P0DTC2 14-1273); experiment: cell-based or functional assay
NAC CoV2 S1 = target: T1, NAC CoV2 S1 (SARS-COV-2, UniProt P0DTC2 14-674); experiment: instrument not stated
T1 construct: domain: S1

[2] = target: T2, Sino CoV2 RBD (Receptor Binding Domain) (SARS-COV-2, UniProt P0DTC2 319-541); experiment: instrument not stated
Sino SARS1 S1 = target: T3, Sino SARS1 S1 (SARS1, UniProt P59594 14-667); experiment: Carterra LSA
T3 construct: domain: S1

[3] = target: T2, Sino CoV2 RBD (Receptor Binding Domain); experiment: Carterra LSA
[4] = target: T4, Sino CoV2 S2 (spike protein 2) (SARS-COV-2, UniProt P0DTC2 686-1213); experiment: ForteBio; ForteBio
T4 construct: domain: S2 (spike protein 2)

[5] = target: T2, Sino CoV2 RBD (Receptor Binding Domain); experiment: ForteBio; ForteBio
[6] = target: T4, Sino CoV2 S2 (spike protein 2); experiment: Carterra LSA
[7] = target: T4, Sino CoV2 S2 (spike protein 2); experiment: Carterra LSA; Carterra LSA
[8] = target: T2, Sino CoV2 RBD (Receptor Binding Domain); experiment: Carterra LSA; Carterra LSA

B1: SC2 antibody 3705 (scFv)
scFv: LEIVMTQSPATLSVSPGERATLSCRASQSVSNNLAWYQQKPGQAPRLLIYGASTRATGIPARFSGSGSGTEFTLTISSLQSEDFAVYYCQQYNDWPPSWTFGQGTKVEIKGGGGSGGGGSGGGGSQVQLVQSGAEVMQVGASVKVSCKASGYTFTSYGISWVRQAPGQGLEWMGWINTYNGNTNYAQKLQGRVTMTTDTSTTTAYMELRSLRSDDTAVYYCARVAVGYCSGGSCYYFDYWGQGTLVTVSSGGGGSGGQHHHHHHGAEQKLISEEDLGSGKPIPNPLLGLDSTS
notes: also called Anti-SARS-COV-2 antibody 3705
- neutralization of infection of HEK293 cells by spike-pseudotyped lentivirus [1]: 100%
- Kd (NAC CoV2 S1): 57 nM
- Kd [2]: 1.3 nM

B2: SC2 antibody 3969 (antibody, V domains shown)
VH: QVQLVESGGGVVQPGRSLRLSCAASGFTFSSYGMHWVRQAPGKGLEWVAVISYDGSNKYYADSVKGRFTISRDNSKNTLYLQMNSLRAEDTAVYYCAKGVGDYAVWGQGTLVTVSS
VL: QSALTQPASVSGSPGQSITISCTGTNSDIGGYDYVSWYQQHPGKAPKLMIFDVNNRPSGVSNRFSGSKSGNTASLTISELQSADEADYFCSSFSTRNSLVVFGGGTKLTVL
notes: also called Anti-SARS-COV-2 antibody 3969
- Kd (Sino SARS1 S1): 28 nM
- Kd [3]: 105 nM

B3: SC2 antibody 3387 (antibody, V domains shown)
VH: QVQLVQSGAEVMQVGASVKVSCKASGYTFTSYGISWVRQAPGQGLEWMGWINTYNGNTNYAQKLQGRVTMTTDTSTTTAYMELRSLRSDDTAVYYCARVAVGYCSGGSCYYFDYWGQGTLVTVSS
VL: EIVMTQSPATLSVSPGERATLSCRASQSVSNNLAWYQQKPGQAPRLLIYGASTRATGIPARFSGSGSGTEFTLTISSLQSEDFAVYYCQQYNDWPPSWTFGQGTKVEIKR
- neutralization of infection of HEK293 cells by spike-pseudotyped lentivirus [1]: ~45%

B4: SC2 antibody 3396 (antibody, V domains shown)
VH: GVQLVESGGGLVQPGRSLRVSCAASGFTFADYAMHWVRQAPGKGLEWVSGISWNSGNIAYADSVKGRFTISRDNAKNSLYLQMDSLRPDDTALYYCVKASTLYYYFYMDVWGKGTTVTVSS
VL: QSALTQPPSASGSPGQSVTISCTGTSSDVGGYDYVSWYQQHPGKAPKFMIYEVSKRPSGVPDRFSGSKSGNTASLTVSGLQAEDEADYYCCSYAGSNNYVFGTGTKVTVLG
notes: also called Anti-SARS-COV-2 antibody 3396
- neutralization of infection of HEK293 cells by spike-pseudotyped lentivirus [1]: ~50%
- Kd [4]: 122 nM
- Kd [5]: 22 nM

B5: SC2 antibody 3908 (antibody, V domains shown)
VH: EVQLVESRGGLVQPGGSLRLSCAATGFTLSSFDMHWVRQATGKGLEWVSAIGTAGDTYYPGSVKGRFTISRENAKNSLYLQMNSLRAGDTAVYYCARGTWLRDYNFWSGYNYYFDYWGQGTLVTVSS
VL: QSALTQPPSASGSPGQSVTISCTGTSSDVGGYIYVSWYQQHPGKAPKLIIYEVSKRPSGVPDRFSGSKSGNTASLTVSGLQAEDEADYYCSSYADSNNYVFGSGTRVTVLG
notes: also called Anti-SARS-COV-2 antibody 3908
- Kd [4]: 74 nM

B6: SC2 antibody 3947 (antibody, V domains shown)
VH: QLQLQESGSGLVKPSQTLSLTCAVSGGSVSSGGYSWSWIRQPPGKGLEWIGYIYDSGITSYNPSLKSRLTISIDRSKNQFSLGLSSVTAADTAVYYCARVRRNTSGSFSTGHFDYWGQGTLVTVSS
VL: QSVLTQPPSVSASPGQTVTISCSGSTSNIGGNYVSWYQHLPGTAPKLLIYDSNKRPSGIPDRFSGSKSGTSATLGITGLQTEDEADYYCGTWDYRLSGAVFGGGTKLTVL
notes: also called Anti-SARS-COV-2 antibody 3947
- Kd [6]: 25 nM

B7: SC2 antibody 4083 (antibody, V domains shown)
VH: QLQLQESGSGLVKPSQTLSLTCAVSGGSVSSGGYSWSWIRQPPGKGLEWIGYIYDSGITSYNPSLKSRLTISIDRSKNQFSLGLSSVTAADTAVYYCARVRRNTSGSFSTGHFDYWGQGTLVTVSS
VL: QSVLTQPPSVSAVPGQKVTISCSGNNSNIGNNLVSWYQQLPGTAPKLLIYNNNRRPSGIPDRFSGSKSGTSATLGITGLQTGDEAAYYCAARDSSLSAVVFGGGTKLTVL
notes: also called Anti-SARS-COV-2 antibody 4083
- Kd [6]: 41 nM

B8: anti-SARS-COV-2 (SC2) antibody 3417 (antibody, V domains shown)
VH: QVQLQESGPGLLKPSQTLSLTCTVSGVSIRNSNYFWNWIRRPAGKGLEWIGRMHSGGTTNYNPSLKSRVTVSSDAARNQFSLELTSVTAADTAVYYCARDDPLNRFAAFQIWGRGTLVTVSS
VL: QSVLTQPPSVSAAPGQKVTISCSGSSSNIGNKYISWYQQLPGTAPKLLIYDNNKRPSGIPDRFSGSKSGTSATLGITGLQTGDEADYYCGTWDSSLSVFYVFGTGTKVTVLG
notes: also called SC2 Ab 3417
- neutralization of infection of HEK293 cells by spike-pseudotyped lentivirus [1]: ~70%
- Kd [7]: 63 nM
- Kd [8]: 7.2 nM
- Kd [5]: < 0.001 nM

B9: SC2 antibody 3388 (antibody, V domains shown)
VH: QVQLVESGGGVVQPGRSLRLSCAASGFTFSSYAMHWVRQAPGKGLEWVAVISYDGSNKYYADSVKGRFTISRDNSKNTLYLQMNSLRAEDTAVYYCAREGNIVATISLDYWGQGTLVTVSS
VL: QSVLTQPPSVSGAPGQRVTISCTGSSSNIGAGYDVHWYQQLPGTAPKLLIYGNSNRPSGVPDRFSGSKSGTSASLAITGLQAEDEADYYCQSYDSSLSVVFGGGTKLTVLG
notes: also called Anti-SARS-COV-2 antibody 3388
- Kd [7]: 10 nM
